Patent US20200062814A1

Tests used:
[1] = biological target: mouse IgG1 (Fc)-LAP-MMP-IFN; assay: cell-based or functional assay
[2] = system: mouse IgG1 (Fc)-LAP-MMP-IFN

Chain of recombinant MMP-1 (P03956 100-469): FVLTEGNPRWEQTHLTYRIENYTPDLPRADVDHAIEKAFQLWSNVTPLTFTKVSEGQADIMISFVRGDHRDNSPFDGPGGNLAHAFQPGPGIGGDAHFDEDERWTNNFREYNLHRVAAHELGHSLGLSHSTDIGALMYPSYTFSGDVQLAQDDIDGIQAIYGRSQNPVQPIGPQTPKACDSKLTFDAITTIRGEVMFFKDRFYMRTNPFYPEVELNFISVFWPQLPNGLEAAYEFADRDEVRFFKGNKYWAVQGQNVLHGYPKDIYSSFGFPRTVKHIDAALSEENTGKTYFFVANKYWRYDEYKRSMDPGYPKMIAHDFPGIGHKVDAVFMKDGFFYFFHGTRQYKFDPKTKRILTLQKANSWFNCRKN
Chain of mouse IgG1 (Fc)-LAP-MMP-IFN (chain, as listed by the source): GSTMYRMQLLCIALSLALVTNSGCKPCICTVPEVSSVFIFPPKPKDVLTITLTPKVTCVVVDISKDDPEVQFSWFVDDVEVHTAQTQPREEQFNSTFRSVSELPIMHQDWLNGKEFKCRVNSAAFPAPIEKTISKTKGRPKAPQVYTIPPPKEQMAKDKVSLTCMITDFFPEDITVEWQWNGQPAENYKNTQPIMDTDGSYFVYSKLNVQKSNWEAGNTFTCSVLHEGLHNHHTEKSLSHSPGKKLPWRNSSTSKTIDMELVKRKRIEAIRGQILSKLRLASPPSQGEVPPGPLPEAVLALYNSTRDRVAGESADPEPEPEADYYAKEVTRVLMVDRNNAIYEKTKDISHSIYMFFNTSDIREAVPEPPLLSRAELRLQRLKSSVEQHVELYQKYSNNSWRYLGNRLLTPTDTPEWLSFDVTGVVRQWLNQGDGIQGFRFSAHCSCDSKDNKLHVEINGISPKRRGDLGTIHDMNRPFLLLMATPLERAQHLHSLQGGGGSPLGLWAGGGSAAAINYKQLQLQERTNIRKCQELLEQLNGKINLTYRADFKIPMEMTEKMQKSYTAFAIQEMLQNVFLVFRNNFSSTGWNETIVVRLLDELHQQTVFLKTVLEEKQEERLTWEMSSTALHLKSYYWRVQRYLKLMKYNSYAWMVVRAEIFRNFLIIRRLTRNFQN

Substance | Luciferase activity (viability of L929 cells after EMC virus infection) [1] | IFN biological activity (U/ml) [2] [U/ml] | cleavage of Ig-LAP-IFN by MMP1 (western blot with anti-LAP antibodies after non-denaturing SDS-PAGE) [2]
recombinant MMP-1 (enzyme) | 5070 |  | 
recombinant MMP-1 |  | 30 | The molecular weight of the cleaved Ig-LAP corresponds to the expected size of about 160 kDa.
